Experimental findings from article PMC8456102 are described below.

The target of the test is native Tyr-p3 (group 3 allergen of Tyrophagus putrescentiae) (Tyrophagus putrescentiae) (UniProt C6ZDB5).
UniProt C6ZDB5, sequence (C6ZDB5 34-285): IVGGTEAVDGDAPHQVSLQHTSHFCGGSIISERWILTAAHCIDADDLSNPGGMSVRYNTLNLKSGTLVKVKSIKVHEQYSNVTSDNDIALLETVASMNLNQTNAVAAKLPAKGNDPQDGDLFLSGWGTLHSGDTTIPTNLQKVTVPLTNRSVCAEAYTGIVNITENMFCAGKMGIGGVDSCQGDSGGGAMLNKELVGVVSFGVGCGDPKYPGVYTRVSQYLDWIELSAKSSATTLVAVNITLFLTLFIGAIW

With “soybean trypsin inhibitor (from UniProt P01070 25-205) (natural protein)”, the inhibition of the protease activity of nTyr-p3 on the substrate TAME (OD 405 nm; sample pretreated with 10 mM inhibitor for 60 min at 25°C) was determined as 88%.
